From publication PMC8934646, “The intrinsically disordered TSSC4 protein acts as a helicase inhibitor, placeholder and multi-interaction coordinator during snRNP assembly and recycling” (Nucleic Acids Research, 2022)

Molecular target: T1, SNRNP200 helicase region (SNRNP200^HR) (human, UniProt O75643 395-2129)
T1 construct: human SNRNP200 helicase region, residues 395-2129
Experiment: SEC; competitive binding: 5 μM pre-formed SNRNP200^HR-FBP21^200–376 or SNRNP200^HR-C9ORF78 complex incubated with 5 μM GST-TSSC4 in 50 μl, 10 min on ice, then analytical SEC as in a1
Conditions: both partners purified

T1 sequence (O75643 395-2129): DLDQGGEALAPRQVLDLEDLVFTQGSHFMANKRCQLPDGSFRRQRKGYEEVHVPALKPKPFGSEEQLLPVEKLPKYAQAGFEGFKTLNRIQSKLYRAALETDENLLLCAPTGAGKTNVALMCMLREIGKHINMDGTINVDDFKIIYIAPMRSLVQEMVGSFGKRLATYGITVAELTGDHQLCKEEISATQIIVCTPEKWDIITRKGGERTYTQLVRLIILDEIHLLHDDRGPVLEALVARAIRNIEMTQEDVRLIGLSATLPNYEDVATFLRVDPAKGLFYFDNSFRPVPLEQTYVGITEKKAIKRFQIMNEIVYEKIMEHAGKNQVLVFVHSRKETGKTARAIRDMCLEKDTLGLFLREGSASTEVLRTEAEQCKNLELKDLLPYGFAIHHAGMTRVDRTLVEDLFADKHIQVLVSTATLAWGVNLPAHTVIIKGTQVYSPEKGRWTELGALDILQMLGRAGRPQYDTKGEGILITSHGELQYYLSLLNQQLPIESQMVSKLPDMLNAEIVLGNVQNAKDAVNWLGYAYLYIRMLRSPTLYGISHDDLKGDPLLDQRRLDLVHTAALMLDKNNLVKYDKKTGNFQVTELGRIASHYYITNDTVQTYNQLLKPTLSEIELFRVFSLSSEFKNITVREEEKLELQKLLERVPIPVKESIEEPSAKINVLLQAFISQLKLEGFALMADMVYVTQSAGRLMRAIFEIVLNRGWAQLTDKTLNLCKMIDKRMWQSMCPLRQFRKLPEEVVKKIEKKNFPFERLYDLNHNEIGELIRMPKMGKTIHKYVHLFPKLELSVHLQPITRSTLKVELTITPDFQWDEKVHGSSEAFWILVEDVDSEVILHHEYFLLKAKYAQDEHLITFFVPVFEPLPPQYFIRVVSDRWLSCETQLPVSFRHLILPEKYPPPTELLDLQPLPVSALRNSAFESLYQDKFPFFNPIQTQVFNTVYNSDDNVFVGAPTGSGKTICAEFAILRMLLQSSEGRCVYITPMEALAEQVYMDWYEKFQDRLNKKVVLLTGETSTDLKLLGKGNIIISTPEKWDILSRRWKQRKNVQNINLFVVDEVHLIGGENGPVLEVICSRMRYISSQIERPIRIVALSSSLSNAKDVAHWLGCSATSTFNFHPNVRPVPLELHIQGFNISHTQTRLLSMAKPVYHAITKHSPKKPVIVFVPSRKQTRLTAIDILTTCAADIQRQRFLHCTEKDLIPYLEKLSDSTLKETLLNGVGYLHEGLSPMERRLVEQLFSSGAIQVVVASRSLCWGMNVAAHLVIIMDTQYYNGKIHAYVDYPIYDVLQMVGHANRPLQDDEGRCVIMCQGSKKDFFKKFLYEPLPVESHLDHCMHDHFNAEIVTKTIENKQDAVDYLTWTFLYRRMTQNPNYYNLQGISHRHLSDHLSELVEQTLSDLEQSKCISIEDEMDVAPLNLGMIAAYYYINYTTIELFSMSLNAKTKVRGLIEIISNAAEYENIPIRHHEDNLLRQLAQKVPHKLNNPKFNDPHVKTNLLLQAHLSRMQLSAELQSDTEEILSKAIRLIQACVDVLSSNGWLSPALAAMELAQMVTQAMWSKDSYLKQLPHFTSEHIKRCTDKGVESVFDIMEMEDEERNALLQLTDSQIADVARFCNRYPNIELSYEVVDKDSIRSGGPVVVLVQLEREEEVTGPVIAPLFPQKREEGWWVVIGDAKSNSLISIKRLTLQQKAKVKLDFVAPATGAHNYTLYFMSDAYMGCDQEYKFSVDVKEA

binding result: binds
B1: C-terminal fragment of FBP21 (FBP21^200–376) (domain or fragment, human, UniProt O75554 200-376, looked up)
chain: HTSDLPSSKVNENSLGTLDESKSSDSHSDSDGEQEAEEGGVSTETEKPKIKFKEKNKNSDGGSDPETQKEKSIQKQNSLGSNEEKSKTLKKSNPYGEWQEIKQEVESHEEVDLELPSTENEYVSTSEADGGGEPKVVFKEKTVTSLGVMADGVAPVFKKRRTENGKSRNLRQRGDDQ
